Measured values taken from publication PMC5693923 (2017).

Biological target: TLR4 extracellular domain 24-631 (Homo sapiens, UniProt O00206)
Assay: solid phase binding assay

Chain of TLR4 extracellular domain 24-631 (O00206 24-631): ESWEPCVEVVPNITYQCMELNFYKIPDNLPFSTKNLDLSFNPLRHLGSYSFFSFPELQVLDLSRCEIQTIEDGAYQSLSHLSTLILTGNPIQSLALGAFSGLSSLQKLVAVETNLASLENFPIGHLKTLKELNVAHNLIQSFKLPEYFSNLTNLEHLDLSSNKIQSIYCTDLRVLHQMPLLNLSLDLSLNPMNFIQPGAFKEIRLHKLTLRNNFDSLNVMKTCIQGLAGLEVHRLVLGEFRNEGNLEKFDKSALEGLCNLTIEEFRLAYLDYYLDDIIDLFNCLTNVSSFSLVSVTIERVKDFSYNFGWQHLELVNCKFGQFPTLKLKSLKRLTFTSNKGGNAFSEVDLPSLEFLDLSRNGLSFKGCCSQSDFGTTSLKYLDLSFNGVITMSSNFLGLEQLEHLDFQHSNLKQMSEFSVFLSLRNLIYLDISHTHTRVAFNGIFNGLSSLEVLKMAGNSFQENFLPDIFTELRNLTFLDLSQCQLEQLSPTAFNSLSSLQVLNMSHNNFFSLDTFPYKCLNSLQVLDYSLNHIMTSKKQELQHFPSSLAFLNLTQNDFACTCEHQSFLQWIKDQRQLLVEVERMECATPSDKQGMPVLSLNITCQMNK

B1: Tenascin-W FBG domain (FBG-W) 1060-1300 (protein)
chain: VGARFPHPSDCSQVQQNSNAASGLYTIYLHGDASRPLQVYCDMETDGGGWIVFQRRNTGQLDFFKRWRSYVEGFGDPMKEFWLGLDKLHNLTTGTPARYEVRVDLQTANESAYAIYDFFQVASSKERYKLTVGKYRGTAGDALTYHNGWKFTTFDRDNDIALSNCALTHHGGWWYKNCHLANPNGRYGETKHSEGVNWEPWKGHEFSIPYVELKIRPHGYSREPVLGRKKRTLRGRLRTF
**Q.** With B1 as the binder, how does the Kd read?
**A.** Its Kd is roughly 55 nM.

B2: Tenascin-R FBG domain (FBG-R) 1128-1359 (protein)
chain: GGRVFPHPQDCAQHLMNGDTLSGVYPIFLNGELSQKLQVYCDMTTDGGGWIVFQRRQNGQTDFFRKWADYRVGFGNVEDEFWLGLDNIHRITSQGRYELRVDMRDGQEAAFASYDRFSVEDSRNLYKLRIGSYNGTAGDSLSYHQGRPFSTEDRDNDVAVTNCAMSYKGAWWYKNCHRTNLNGKYGESRHSQGINWYHWKGHEFSIPFVEMKMRPYNHRLMAGRKRQSLQF
**Q.** How did the Kd turn out when B2 was run?
**A.** The Kd was roughly 55 nM.
